Experimental data published in paper PMC314469, “Protein Interaction Networks by Proteome Peptide Scanning” (PLoS Biology, 2004).

T1: Abp1 SH3 (ABP1_YEAST), P15891
T1 chain: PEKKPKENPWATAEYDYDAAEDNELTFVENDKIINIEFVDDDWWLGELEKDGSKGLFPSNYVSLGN


Molecular target: T1, Abp1 SH3 (ABP1_YEAST), P15891
Test: SPOT array

| Binder | normalised SPOT signal, Boehringer light units (BLU); mean over the file's lines of this peptide |
| --- | --- |
| PRGAPGMPEMLKP [YJR016C 466-478] | 146 |
| PTTLKRPPLSSRP [YDR389W 56-68] | 6140 |
| PVPELDIKQGPVRP [YDL095W 15-28] | 183 |
| QAPSMGIPQQNRP [YOR181W 300-312] | 117 |
| QIGSVATSGIPARP [YLR138W 520-533] | 66.6 |
| QIREDQQEVPPQRP [YMR160W 21-34] | 74.4 |
| QDYGSISPSNIRP [YER132C 1035-1047] | 0 |
| PTAVFLRLISPTRP [YOR249C 37-50] | 37.3 |
| PVSSRKAVEPPRKP [YDR464W 340-353] | 479 |
| PVFVTDYPRLSKP [YCR024C 376-388] | 93.5 |
| PTLEDHTPPEDKP [YHR001W-A 64-76] | 81 |
| QEAVNSSPSEFRP [YOR299W 396-408] | 165 |
| PRETAAGPANIRP [YOL019W 423-435] | -0 |
| QEYGGQKPELSKP [YHL032C 439-451] | 58.1 |
| PNSDRLQLLEPFKP [YJL200C 564-577] | 98.6 |
| PQQLQQQPNGQRP [YPL204W 411-423] | 128 |
| PPPPPPPPPSSKP [YMR109W 1073-1085] | 117 |
| QISWNGIPKIHRP [YOR070C 275-287] | 1750 |
| PVTMRVHPKNGKP [YLR304C 734-746] | 1700 |
| QAHVQTNPQVPKP [YPR129W 112-124] | 0 |

| Binder | normalised SPOT signal, Boehringer light units (BLU); mean over the file's lines of this peptide |
| --- | --- |
| QILLPTNPTLDKP [YNR010W 13-25] | 135 |
| PNNNGITPVEKKP [YJL123C 260-272] | 0 |
| PMVNQYSPTRGRP [YJL060W 83-95] | 2140 |
| PRQVAVDPKTGKP [YKR001C 550-562] | 32.3 |
| QDFKSPLENDPNRP [YPL188W 113-126] | 41.4 |
| PQYDEIHIPAPSKP [YER172C 458-471] | 36.2 |
| PPLIGSGPGSHKP [YLR176C 127-139] | 192 |
| PYTAKGAPIISKP [YOL061W 103-115] | 127 |
| PYNYLQRPFIVKP [YML113W 199-211] | 206 |
| QEQQNKAPEKPKP [YGL105W 194-206] | 46.6 |
| PLYDGNSITPPVKP [YMR016C 338-351] | 110 |
| PMVGLVDPDKLKP [YOR117W 130-142] | 234 |
| QEDPISNFLPPPKP [YBR108W 580-593] | 114 |
| PTSDRLQLLKPFKP [YLR304C 557-570] | 920 |
| QGLKLTVPKKIKP [YHR031C 197-209] | 1000 |
| PVFMAIKQHSPDKP [YGR271W 1358-1371] | 790 |
| PRIPRLVPQWEKP [YLR174W 115-127] | 698 |
| QDKRNLRSNAPTKP [YLR263W 598-611] | 67.5 |
| QFRDDSLPPKSKP [YIL091C 357-369] | 196 |
| QEENKLEESVPTKP [YIL072W 279-292] | 88 |

| Binder | normalised SPOT signal, Boehringer light units (BLU); mean over the file's lines of this peptide |
| --- | --- |
| PRTYSKTYSTPKRP [YBR189W 5-18] | 88.1 |
| PSNDRSAPKNIKP [YNL139C 1426-1438] | 86.5 |
| QHNTSSSRRGPGRP [YDR310C 197-210] | 579 |
| PNERIISFEFPERP [YER086W 492-505] | 64.1 |
| PQLHDYLPTLERP [YCR034W 17-29] | 0 |
| PRDTIIGHGLPYKP [YLR224W 322-335] | 46.8 |
| PQNRVQAPTAYKP [YBL013W 258-270] | 287 |
| PRIPRLVPRWEKP [YDL066W 131-143] | 3910 |
| PSVVSSSESQPSKP [YML109W 615-628] | 23.6 |
| QKNVIHRAARPTRP [YLR029C 32-45] | 253 |
| PPLTKEGPTSKKP [YCR094W 11-23] | 200 |
| QFIKAGVPIGRKP [YGR112W 321-333] | 7910 |
| PTDIQLKNLFPLKP [YPL243W 519-532] | 128 |
| QIIETPYPPTQKP [YJL208C 31-43] | 55 |
| QFMSAGLPQVAKP [YLR304C 105-117] | 140 |
| PRMGHVFPLETRP [YPR118W 222-234] | 4090 |
| PVIMWVPSMYPVKP [YCL008C 82-95] | 94.4 |
| PTTSIGFPALEKP [YLL022C 355-367] | 49.2 |
| PPPQQAQSLQPLKP [YIR006C 205-218] | 188 |
